Reference: patent US20220339270A1

Key:
[1] = target: Phospho_Tau441 (Tau441 phosphorylated in vitro by DYRK1A) (human), P10636; assay: ELISA, PT3 immobilized, tau protein applied at 333 ng/mL; details: remark: other sources report otherwise
[2] = target: Tau441 (recombinant, not phosphorylated) (human), P10636; assay: as above; details: remark: other sources report otherwise
Sequence of Tau441 (recombinant, not phosphorylated) (human), P10636 (P10636 other isoform, or with tags, fused parts or gaps limits assumed): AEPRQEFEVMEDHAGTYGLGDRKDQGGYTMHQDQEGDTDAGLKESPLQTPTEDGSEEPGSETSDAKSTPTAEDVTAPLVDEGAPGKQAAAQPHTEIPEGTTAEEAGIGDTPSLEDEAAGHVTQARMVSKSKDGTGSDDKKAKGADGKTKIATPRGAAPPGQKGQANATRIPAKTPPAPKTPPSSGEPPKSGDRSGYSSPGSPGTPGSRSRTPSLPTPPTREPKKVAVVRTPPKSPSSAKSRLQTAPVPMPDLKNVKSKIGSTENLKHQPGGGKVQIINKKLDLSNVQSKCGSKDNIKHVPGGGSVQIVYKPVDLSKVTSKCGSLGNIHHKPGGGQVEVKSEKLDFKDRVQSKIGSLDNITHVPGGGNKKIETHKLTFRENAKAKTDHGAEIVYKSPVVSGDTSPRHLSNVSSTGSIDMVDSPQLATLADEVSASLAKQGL

Sequence of Phospho_Tau441 (Tau441 phosphorylated in vitro by DYRK1A) (human), P10636 (P10636 other isoform, or with tags, fused parts or gaps limits assumed): as above

B1: anti-tau antibody PT3 (antibody, V domains shown)
VH: EVKLVESGGDLVKPGGSLKLSCAASGFTFSSYAMSWVRQNPEKRLEWVASISKGGNTYYPNSVKGRFTISRDNARNILYLQMSSLRSEDTALYYCARGWGDYGWFAYWGQVTLVTVSA
VL: DIKMTQSPSSMYASLGERVTITCKASQDINRYLNWFQQKPGKSPKTLIYRANRLLDGVPSRFSGSGSGQDYSLTISSLDYEDMGIYYCLQYDEFPLTFGDGTKLELK
- OD450-570 [1]: 0.5
- OD450-570 [2]: 0
